Results on 5 molecules are retold here after patent publication US20040234982A1 (published 2004).

In data set [1] the test system is unknown -112 site binding nuclear protein. Kind of data set: EMSA. In general terms: In EMSA bound probe runs differently from free probe, usually more slowly.
In the next data set the target is T1, T/EBP/NKX2.1 (TTF1) (UniProt P23441).
T1 sequence: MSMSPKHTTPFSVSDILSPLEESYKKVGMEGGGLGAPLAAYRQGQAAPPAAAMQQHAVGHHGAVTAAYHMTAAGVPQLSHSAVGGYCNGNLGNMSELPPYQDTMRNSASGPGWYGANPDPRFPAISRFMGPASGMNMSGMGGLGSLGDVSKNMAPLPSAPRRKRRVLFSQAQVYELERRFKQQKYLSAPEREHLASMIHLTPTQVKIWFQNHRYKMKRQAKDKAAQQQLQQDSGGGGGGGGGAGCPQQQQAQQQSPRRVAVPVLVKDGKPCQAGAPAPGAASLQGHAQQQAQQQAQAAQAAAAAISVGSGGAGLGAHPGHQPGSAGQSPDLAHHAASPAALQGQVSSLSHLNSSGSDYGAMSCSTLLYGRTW
The data set is described as follows: cell_activity. The settings on record: luciferase.

Data set [2] concerns the molecule itself. The data set is described as follows: anti-c-myc immunoblot of COS-1 cell lysate and conditioned medium, non-reducing vs reducing SDS-PAGE; homodimer. Here is the method: Three forms of cDNAs encoding type A, B and C proteins were amplified by PCR and inserted into EcoRI and XhoI site of pcDNA3.1/Myc-His(+) A vector (Invitrogen). Transient transfection into COS-1 cells was performed using Effectene transfection reagent (Qiagen). After 2 days, cells and conditioned media were collected, separated on 13% SDS-polyacrylamide gels under reducing and non-reducing conditions, and electrophoretically transferred to nitrocellulose membrane (Schleicher & Schuell). The filter was incubated in PBS containing 5% skim milk, and then for 1 h with 250-fold diluted c-myc 9E10 […] antibody (Santa Cruz Biotechnology, Santa Cruz, Calif.). The filter was washed in PBS containing 0.1% Tween 20, incubated with horseradish peroxidase (HRP)-conjugated anti-rabbit IgG (Amersham Pharmacia Biotech), and then washed with the same buffer. Protein bands were detected using ECL Western blotting detection reagent (Amersham Pharmacia Biotech).
The polypeptides of uteroglobin/CCSP family members form a homodimer or heterodimer (Mukherjee et al., Cell Mol Life Sci 55:771-787, 1999). […] In contrast, no band corresponding to polypeptide C was ever detected in either the cell lysate or the medium under any conditions examined, despite the effort to keep the procedures of transient expression and immunoblot analyses consistent for all three polypeptides. […]
(A western blot detects proteins with antibodies after separation by electrophoresis.)

On to -112A oligonucleotide, for which, in data set [1] (binds at same mobility, about 2-fold lower affinity), the binding signal (fold affinity vs -112G) is 0.5. In turn, -112G oligonucleotide returned a binding signal (fold affinity vs -112A) in data set [1] (competition with unlabeled oligonucleotides) of 2. The molecule pGL3-147 mouse UGRP1 promoter reporter registered an activity (fold activation) in the data set with T/EBP/NKX2.1 (TTF1) (HeLa cells) of 5.

As for pGL3-190 mouse UGRP1 promoter reporter, in the data set with T/EBP/NKX2.1 (TTF1) (NCI-H441 cells), the activity (fold activation) stood at 4.

B1: Mouse UGRP1 type A polypeptide tagged with a c-myc epitope at the carboxyl-terminus, expressed in COS-1 cells (other, not shown: small tags and cut ends)
chain: LLINRLPVVDKLPVPLDDIIPSFDPLKMLLKTLGISVEHLVTGLKKCVDELGPEASEAVKKLLEALSHLV
notes: Type A is 91 amino acids; The protein was found as a homodimer under non-reducing conditions; also called polypeptide A
B1: the binding result in data set [2] is reported as “binds”.
